No end group written: not given here.
Tests used:
procaspase 1 = biological target: T1, procaspase 1 (Homo sapiens, UniProt P29466); assay: Co-immunoprecipitation of purified recombinant procaspase 1 with recombinant C/EBPβ peptides; type: binding; details: peptides 200 μM, procaspase 1 0.6 U, quantitated by densitometry
T1 construct: purchased Alexis Biochemicals 201-056
T1 sequence (P29466 1-404): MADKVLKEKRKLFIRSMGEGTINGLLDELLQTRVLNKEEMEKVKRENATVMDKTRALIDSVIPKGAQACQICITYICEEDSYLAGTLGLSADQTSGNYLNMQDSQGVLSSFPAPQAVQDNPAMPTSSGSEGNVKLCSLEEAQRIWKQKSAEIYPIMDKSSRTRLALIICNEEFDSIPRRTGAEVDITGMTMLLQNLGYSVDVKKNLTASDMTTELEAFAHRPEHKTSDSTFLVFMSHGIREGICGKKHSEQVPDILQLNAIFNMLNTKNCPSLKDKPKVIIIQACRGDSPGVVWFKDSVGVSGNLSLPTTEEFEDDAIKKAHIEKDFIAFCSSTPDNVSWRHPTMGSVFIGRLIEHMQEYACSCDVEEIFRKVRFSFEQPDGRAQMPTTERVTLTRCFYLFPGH
Method: (§1) FIG. 5 provides results showing the direct association of C/EBPβ-Glu^217 with procaspases 1 and 8. […] Enzyme activity was measured in the absence (control) or presence of C/EBPβ peptides (200 μM) for 2 h, using a procaspases 1 (1U) (not shown) and 8 (0.2 μg) activity assay. Values are presented as the mean±one half the range of duplicates. Panel C provides results for cells cultured on a collagen type I matrix and incubated with the indicated cell permeant, purified synthetic N-acetyl, C-aldehyde C/EBPβ tetra-peptides (10 μM) or with recombinant C/EBPβ-HA peptides as indicated, together with the Chariot reagent (Active Motif) for 4 h. Control cells were incubated without peptides (P<0.05 for all peptides containing Ala^217).
(§2) Purified recombinant C/EBPβ peptides, expressed as known in the art (See, Descombes et al., supra; and Buck et al. (1994), supra), and purified synthetic N-acetyl, C-aldehyde tetrapeptides (200 μM) (American Peptide Company) were assayed for their ability to inhibit the activity of purified human recombinant caspases 1 (catalogue # 201-056) and 8 (catalogue # 201-041-C005) (Alexis Biochemicals). The sequence of caspase 8 includes Ser217 through Asp479 cloned into an expression vector containing a 21 amino acid linker at the N-terminus. Thus, the prodomain (first 220 amino acids) is essentially missing. The fragment is cleaved at Asp385 and the active caspases are essentially identical to those identified in apoptotic cells (Stennicke and Salvesen, Meth. Enzymol., 322:91-100 (1997)). Caspase activity was determined by the release of the p-nitroaniline colorimetric (Alexis Biochemicals) substrate for caspase 1 (catalogue # 260-026) or 8 (catalogue # 260-045) within the linear part of the kinetic assay (Thornberry et al. (1997), supra; Stennicke and Salvesen, supra). Caspase 1 and 8 activity in cells was performed with colorimetric kits (catalogues # 850-211-K and 850-221-K) as described by the manufacturer (Alexis) (See also, Thornberry et al. (1997), supra). The caspase 8 inhibitor IETD was from Calbiochem (Catalogue # 218773).
To delineate the role of C/EBPβ on the activation of procaspases 1 and 8, the self-activation of recombinant procaspases 1 and 8 was induced in vitro (Wilson et al., supra; Margolin et al., supra; and Earnshaw et al., supra), and the effect of purified recombinant C/EBPβ peptides, produced as described previously (Descombes et al., supra; and Buck et al., (1994), supra) on this process was determined. Consistent with the in vivo results described above, C/EBPβ-HA-Glu^217 and C/EBPβ 216-253-HA-Glu^217, but not C/EBPβ-HA-Ala^217, peptides associated with procaspases 1 and 8 (See, FIG. 5, Panel A). […]

procaspase 8 = procaspase 8 (Homo sapiens, UniProt Q14790); assay: Co-immunoprecipitation of purified recombinant procaspase 8 with recombinant C/EBPβ peptides; type: binding; design: 21 amino acid linker (vector-derived) (N); purchased Alexis Biochemicals 201-041-C005; details: peptides 200 μM, procaspase 8 0.12 μg, quantitated by densitometry
Chain of procaspase 8 (Q14790 217-479): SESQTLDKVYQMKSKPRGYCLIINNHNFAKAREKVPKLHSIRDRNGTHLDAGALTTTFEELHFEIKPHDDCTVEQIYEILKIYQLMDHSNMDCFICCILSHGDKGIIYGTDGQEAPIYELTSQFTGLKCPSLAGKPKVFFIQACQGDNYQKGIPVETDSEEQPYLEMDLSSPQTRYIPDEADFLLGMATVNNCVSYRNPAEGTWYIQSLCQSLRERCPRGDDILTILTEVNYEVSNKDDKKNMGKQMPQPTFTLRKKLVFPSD
Method: as §1
as §2, with “The fragment is cleaved at Asp385 and the active caspases are essentially identical to those identified in apoptotic cells (Stennicke and Salvesen, Meth. Enzymol., 322:91-100 (1997)).” left out, “Caspase 1 and 8 activity in cells was performed with colorimetric kits (catalogues # 850-211-K and 850-221-K) as described by the manufacturer (Alexis) (See also, Thornberry et al. (1997), supra). The caspase 8 inhibitor IETD was from Calbiochem (Catalogue # 218773).” left out
To delineate the role of C/EBPβ on the activation of procaspases 1 and 8, the self-activation of recombinant procaspases 1 and 8 was induced in vitro (Wilson et al., supra; Margolin et al., supra; and Earnshaw et al., supra), and the effect of purified recombinant C/EBPβ peptides, produced as described previously (Descombes et al., supra; and Buck et al., (1994), supra) on this process was determined. […]

hepatic stellate cells = assay: Apoptosis of activated stellate cells transfected with C/EBPβ constructs, annexin-V-PE binding; type: cell-based, mouse; details: apoptosis induced by dominant negative MEKK1, IκBα or RSK mutants or by lactacystin
Source text: FIG. 1 provides data showing that phosphorylation of C/EBPβ on Thr^217 is required for hepatic stellate cell survival. Panel A provides phosphopeptide maps of in vivo labeled endogenous C/EBPβ in day-4 quiescent and activated primary mouse stellate cells cultured from the time of isolation on EHS or collagen type I matrix, respectively. The arrow indicates the peptide containing Phospho-Thr^217 in activated cells. […] Panel B provides phosphopeptide maps of in vitro labeled C/EPBβ. Active p90RSK phosphorylated C/EPBβ, but not C/EBPβ-Ala^217 on Thr^217 in vitro (arrowheads). Panel C provides results for cells cultured on collagen type I transfected with MSV-C/EBPβ antisense (AS), MSV-C/EBPβ sense (S), or MSV-C/EBPβ-Ala^217 together with CMV-GFP (green fluorescent protein) and p90RSK (1 μg each), as indicated in the Figure. Four hours after transfection, annexin-V-PE binding to plasma membranes was determined. The values presented are the percentage of transfected cells (green) that were annexin-V-PE (+) (red) (P<0.05 for C/EBPβ AS, and C/EBPβ-Ala^217). Panel D provides results for cells transfected as in […] with vectors expressing dominant negative mutants for MEKK1, IκBα, or p90RSK, or treated with the proteasome inhibitor lactacystin (10 μM) (closed bars), and co-transfected with MSV-C/EBPβ-Glu^217 (1 μg each) (open bars) as indicated. Annexin-V-PE binding was determined as described for Panel A (P<0.05 for C/EBPβ-Glu^217). Panel E provides results for cells transfected as described for Panel C, with a dominant-negative p90RSK, treated with FAS (100 nM for 6 hours) or cultured in a serum-free medium for 6 hours (closed bars), and co-transfected with MSV-C/EBPβ-Glu^217 (1 μg each) (open bars), as indicated. Cell death was determined by nuclear staining with Hoechst 33342 (P<0.05 for C/EBPβ-Glu^217 in RSK mut and FAS-treated cells).
FIG. 4 provides results showing that C/EBPβ PThr^217 associates with procaspases 1 and 8, and inhibits their activation. Panel A provides schematic representations of C/EBPβ peptides. The activation (dotted bars), DNA binding (solid bars) and dimerization (hatched bars) domains are shown. […] Panel C provides results showing that C/EBPβ and procaspase 8 were detected in activated stellate cells isolated from C/EBPβ^+/+ mice by confocal microscopy using specific antibodies (Santa Cruz Biotechnology). Control C/EBPβ^−/− stellate cells were negative for C/EBPβ, positive for procaspase 8, and apoptotic. Panel D provides immunoblot results for MSV vectors expressing C/EBPβ-HA (hemagglutinin protein) peptides (0.3 μg) transfected into activated stellate cells. The expressed peptides were immunoprecipitated with anti-HA antibodies. C/EBPβ-PThr^217 was detected using a specific antibody, only in cells expressing wild-type C/EBPβ. […] RSK was associated with all C/EBPβ peptides. Neither C/EBPβ nor procaspases 1 and 8 were detected in C/EBPβ immunoprecipitates from cells expressing C/EBPβ AS. Reciprocal immunoprecipitations of procaspases and RSK confirmed these associations.
Adult male Sprague-Dawley rats and adult male C/EBPβ^+/+ and C/EBPβ^−/− (Screpanti et al., supra; and Buck et al., (1999), supra), C/EBPβ-Ala^217 and C/EBPβ-Asp^105 transgenic mice were used for the isolation of primary hepatic stellate cells (Houglum et al., supra). Primary hepatic stellate cells were isolated by collagenase/pronase perfusion and purified by a single step density Nycodenz gradient (Accurate Chemical & Scientific) as known in the art (See, Lee et al., (1995), supra). Cells were plated on type I collagen matrix (Becton Dickinson) or EHS matrix (Matrigel, Collaborative Biomedical Products). Cells were cultured with 10% fetal calf serum/10% fetal bovine serum and transfected with lipofectamine (GIBCO) for DNA vectors or with the Chariot reagent (Active Motif) for peptides (10 μM) as known in the art (See, Houglum et al., supra; and Morris et al., J. Biol. Chem., 274:24942-24946 (1999)). […]

Molecule: C/EBPβ216-253-HA-Glu^217: purified recombinant HA tagged C/EBPβ 216-253 peptide with Glu^217 (KEVDKLSDEYKMRRERNNIAVRKSRDKAKMRNLETQHK; also: HA tag (place not given here))
- Co-immunoprecipitation of procaspase 1, fold more than the Ala^217 peptides (procaspase 1): about 7 fold
- Co-immunoprecipitation of procaspase 8, fold more than the Ala^217 peptides (procaspase 8): ~12 fold

Molecule: C/EBPβ 216-253-Glu^217: C/EBPβ fragment 216-253 with Glu^217, lacking the activation and dimerization domains (KEVDKLSDEYKMRRERNNIAVRKSRDKAKMRNLETQHK; left off: small tags and cut ends)
- Co-immunoprecipitation of procaspase 1, fold more than the Ala^217 peptides (procaspase 1): 7 fold
- Rescue from induced apoptosis by expressed construct (hepatic stellate cells): sufficient to rescue cells from apoptosis
- Co-immunoprecipitation of procaspase 8, fold more than the Ala^217 peptides (procaspase 8): 12 fold

B1: C/EBPβ-HA-Glu^217: purified recombinant HA (hemagglutinin) tagged C/EBPβ-Glu^217 peptide (protein)
chain: MHRLLAWDAACLPPPPAAFRPMEVANFYYEPDCLAYGAKAARAAPRAPAAEPAIGEHERAIDFSPYLEPLAPAADFAAPAPAHHDFLSDLFADDYGAKPSKKPADYGYVSLGRAGAKAAPPACFPPPPPAALKAEPGFEPADCKRADDAPAMAAGFPFALRAYLGYQATPSGSSGSLSTSSSSSPPGTPSPADAKAAPAACFAGPPAAPAKAKAKKEVDKLSDEYKMRRERNNIAVRKSRDKAKMRNLETQHKVLELTAENERLQKKVEQLSRELSTLRNLFKQLPEPLLASAGHC
modifications: left off: small tags and cut ends
notes: purified recombinant HA (hemagglutinin) tagged C/EBPβ-Glu^217 peptide
- Co-immunoprecipitation of procaspase 1, fold more than the Ala^217 peptides (procaspase 1): about 7 fold

From patent publication US8129349B2, “Treatment of disease by inducing cell apoptosis” (The Regents of the University of California, priority 2000, dated 2012)
